Reference: patent US20120202890A1, “POLYMER-CARBOHYDRATE-LIPID CONJUGATES” (priority 2011, published 2012)
Ends that are not written are not given here.

Experiments:
[1] = Body weight change as evidence of renal toxicity of cisplatin, intravenous dosing; type: in vivo, mice (B6D2F1); conditions: animal experiments, mice
Experimental: Groups of four each of mixed gender mice (B6D2F1), […] and weights of 22 to 30 grams) were studied in duplicate. Each mouse was administrated cisplatin intravenously at a dose of 10 mg/kg (Table 16) and Intraperitoneally at a dose of 15 mg/kg (Table 17). The changes in body weights observed can be used as a direct evident in the renal toxicity effects.

[2] = Physical state of Propofol formulations with PEG-carbohydrate-lipid (solution, suspension or emulsion); type: physicochemical
Experimental: A propofol solution suitable for intravenous delivery is prepared as follows. 5% (w/v) of OAPDL-PEG in Saline was added to a vessel equipped with a mixer propeller and 2% (w/v) of Propofol was added with constant mixing at ambient room temperature. Mixing was continued until the drug was visually dispersed. Equal volume of Saline was added to the vessel with adequate mixing. Mixing continued for another 30 minutes or until a homogenous solution was achieved. A sample formulation is described in Table 15.
In Example 16, less concentrated or less purified PEG-sugar-lipid will create a suspension instead of an aqueous solution. For instance, the final concentration of the PEG-carbohydrate-lipid is less than 1.5% (w/v), it will form a suspension. Similarly when the oligomer purity is 80% or less, regardless the concentration of the PEG-carbohydrate-lipid, an emulsified solution will be observed instead of a transparent solution.
Propofol as the active agent was formulated with various polymer-lipid-carbohydrate conjugates described in the present invention. At a lower of the polymer-lipid-carbohydrate conjugate concentration, i.e., OAPDL-11 (<1.5%), the formulation is a microemulsion and at a higher OAPDL-11 concentration (≧2.2%), it is a true solution.
A solution is defined as a homogenous mixture of substances with variable composition. […]

[3] = Stability of peptide solution by HPLC assay; type: physicochemical
Experimental: Stability experiment was carried out by HPLC assay and a custom synthesized thermolabile peptide with the following sequence was used as the model compound: […] The peptide was added to selected media and sonicated for 10 minutes. The sample solutions were filtered through passed through 0.22-μm pore-size filter to remove dust particles before the HPLC assay. A Simadzu 10avp chromatography system with a Kinetex C18 (2.6 μm, 100×4.6 mm i.d.) column (Phenomenex, Torrance, Calif.) were used. The solutions were kept at 25° C. in the Autosampler during the assay and the mobile phase consisted of 0.1% of trifluoroacetic acid and acetonitrile mixture (v/v, 80/20) with a flow rate of 1.0 mL/min. The peptide peak was monitored at 210 nm and quantitated using external standard sets of the peptide.
The plots were the % recovery vs. time.

Row | Substance | intravenous hydration effect for reducing renal toxicity of cisplatin [1] | physical state of Propofol formulation ([2]; higher OAPDL-11 concentration (≧2.2%)) | physical state of Propofol formulation ([2]; lower OAPDL-11 concentration (<1.5%)) | peptide degradation ([3]; in a 50 mM of phosphate buffer, in 24 hours) | peptide still remaining ([3]; in a 2% of PEG-carbohydrate-lipid, after 24 hours)
1 | oleoyi-N-(3-aminopropyl)propane-1,3-diamine-Undecaethylene glycol methyl ether Lactobionate [OAPDL-11] | better than free sugars | true solution | microemulsion |  | 
2 | FPKLSHGCNKHSRKHPYMTF [peptide, custom synthesized thermolabile peptide used as the model compound] |  |  |  | degraded significantly | more than 97%
